T1: CD20 (UniProt P11836 1-297, limits assumed)
T1 construct: also called the antigen (of Rituximab and Obinutuzumab)
T1 sequence (looked up): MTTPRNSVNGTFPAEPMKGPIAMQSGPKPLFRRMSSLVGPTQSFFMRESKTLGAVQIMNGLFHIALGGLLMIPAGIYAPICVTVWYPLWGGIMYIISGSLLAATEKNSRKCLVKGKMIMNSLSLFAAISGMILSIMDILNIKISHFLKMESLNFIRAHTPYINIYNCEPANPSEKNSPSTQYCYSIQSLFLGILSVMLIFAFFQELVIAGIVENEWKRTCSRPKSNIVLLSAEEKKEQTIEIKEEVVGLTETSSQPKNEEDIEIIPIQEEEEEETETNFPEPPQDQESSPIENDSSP


How the values were obtained:
[1] = biological target: T2, Vascular Endothelial Growth Factor (VEGF-A) (UniProt P15692-4 27-191, limits assumed); experiment: ELISA, target binding (FIG. 60)
T2 construct: also called the antigen (of Bevacizumab)

[2] = biological target: FcγRIIIA on the effector cells of the ADCC reporter assay (UniProt P08637 17-254, limits assumed); experiment: cell-based or functional assay
CD20 = biological target: T1, CD20; experiment: ELISA, target binding (FIG. 57)

FcγRIIIA on the effector cells of the ADCC reporter assay, sequence (P08637 17-254 limits assumed): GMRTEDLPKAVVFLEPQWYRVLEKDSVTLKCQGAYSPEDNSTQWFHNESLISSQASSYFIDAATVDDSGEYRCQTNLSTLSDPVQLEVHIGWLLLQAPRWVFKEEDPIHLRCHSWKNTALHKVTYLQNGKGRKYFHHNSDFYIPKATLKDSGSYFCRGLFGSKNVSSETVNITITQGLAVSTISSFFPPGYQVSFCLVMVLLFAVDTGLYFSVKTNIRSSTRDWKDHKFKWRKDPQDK
T2 sequence (P15692 other isoform, or with tags, fused parts or gaps limits assumed): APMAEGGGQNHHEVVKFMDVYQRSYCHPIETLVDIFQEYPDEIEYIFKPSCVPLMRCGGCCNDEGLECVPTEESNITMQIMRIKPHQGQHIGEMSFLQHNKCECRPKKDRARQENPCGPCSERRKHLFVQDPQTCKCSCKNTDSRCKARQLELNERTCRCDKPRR

EC50 [1] [nM] | ADCC EC50 (M), ADCC Reporter Bioassay [2] [M] | EC50 (CD20) [nM] | Binder
0.377 | – | – | Bevacizumab population of the present disclosure (Biobetter), produced by SAII A3 cells (antibody, V domains shown, N-glycan on the heavy chain: around 82.6% SCT glycans, mostly with core fucose, also called glycoengineered Avastin protein population) VH: EVQLVESGGGLVQPGGSLRLSCAASGYTFTNYGMNWVRQAPGKGLEWVGWINTYTGEPTYAADFKRRFTFSLDTSKSTAYLQMNSLRAEDTAVYYCAKYPHYYGSSHWYFDVWGQGTLVTVSS VL: DIQMTQSPSSLSASVGDRVTITCSASQDISNYLNWYQQKPGKAPKVLIYFTSSLHSGVPSRFSGSGSGTDFTLTISSLQPEDFATYYCQQYSTVPWTFGQGTKVEIKR
– | 1.76e-10 | 0.77 | Rituximab population of the present disclosure (Biobetter), produced by SAII A3 Fut8 KO cells (antibody, human IgG1, kappa, N-glycan on the heavy chain: around 83.4% SCT glycans, no core fucose, also called glycoengineered MabThera protein population) heavy: not shown light: QIVLSQSPAILSASPGEKVTMTCRASSSVSYIHWFQQKPGSSPKPWIYATSNLASGVPVRFSGSGSGTSYSLTISRVEAEDAATYYCQQWTSNPPTFGGGTKLEIKRTVAAPSVFIFPPSDEQLKSGTASVVCLLNNFYPREAKVQWKVDNALQSGNSQESVTEQDSKDSTYSLSSTLTLSKADYEKHKVYACEVTHQGLSSPVTKSFNRGEC

— US20250333517A1 (ROCK BIOMEDICAL, published 2025)
